Data: patent US20250222127A1, “COMPOSITIONS AND METHODS FOR TREATING AND PREVENTING TRANSPLANT-ASSOCIATED INJURY” (MUSC Foundation For Research Development, priority 2016, published 2025)

Experiments:
allogeneic grafts = assay: Graft survival with B4-Crry and subtherapeutic tacrolimus; type: in vivo
Protocol: FIG. 6 depicts the results of example experiments depicting the survival curve from B4-Crry and subtherapeutic tacrolimus.
Experiments were conducted to examine the effects of B4-Crry in combination with sub-therapeutic tacrolimus (also known as FK506). Tacrolimus was given at 1 mg/kg/day. […] Thus, untreated allogeneic grafts reject at the same extent as the subtherapeutic Tacrolimus treated animals. B4-Crry was given at 0 and 24 hours post-transplant and Tacrolimus was given at 1 mg/kg/day for the duration of the experiment (until full rejection of the graft).

VC isografts = assay: Ischemia reperfusion injury of VC isografts, histology scoring of skin and muscle; type: in vivo; conditions: VC isografts in treated wild type mice
Protocol: Experiments were conducted to evaluate the effects of antibody-targeted complement inhibition on acute graft injury. VC isografts were transplanted into Rag −/− mice or wildtype mice. Mice were treated with PBS, B4 IgM mAb or B4-Crry. Isolated VCAs were stained and scored using a histology scoring system.

annexin IV = target: T1, annexin IV (Homo sapiens, UniProt P09525); assay: Immunohistochemistry of human donor liver biopsies following Tx and 1 hour reperfusion; type: binding
T1 construct: Liver biopsies were obtained from human donor livers following Tx and 1 hour reperfusion; from tissue; host or cells: human donor liver biopsies after transplantation and 1 hour reperfusion
T1 sequence (P09525 2-319 limits assumed): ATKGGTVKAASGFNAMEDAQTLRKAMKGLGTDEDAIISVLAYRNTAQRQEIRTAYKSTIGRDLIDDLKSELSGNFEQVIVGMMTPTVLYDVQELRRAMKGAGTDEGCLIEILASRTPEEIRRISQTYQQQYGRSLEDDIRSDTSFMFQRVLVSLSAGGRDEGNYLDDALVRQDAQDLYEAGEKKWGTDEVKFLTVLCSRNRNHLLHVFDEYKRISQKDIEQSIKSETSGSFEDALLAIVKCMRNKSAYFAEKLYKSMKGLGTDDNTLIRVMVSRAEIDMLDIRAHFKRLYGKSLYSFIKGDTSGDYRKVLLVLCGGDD
Protocol: (§1) A therapeutic strategy that exploited this post-ischemia recognition system of natural antibodies was then developed and characterized. Based on neoepitope identification, an anti-annexin-IV single chain antibody (B4scFv) and an scFv linked to Crry (B4scFv-Crry) was constructed. […] Further, post-ischemic expression of the B4scFv neoepitope has been observed in multiple tissues/organs in both mouse and humans. […] Liver biopsies were obtained from human donor livers following Tx and 1 hour reperfusion. […] Similar data was obtained with normal and ischemic brain samples obtained from stroke patients. Finally, it is shown herein that a decrease in anti-annexin IV Abs in human serum 24 hours after cardiac Tx as compared to pre-Tx levels (note that levels were not decreased in 2 patients, which is likely due to transfusion volume) (Table 1). […] In certain aspects, there may be benefits of a neoepitope vs. C3d targeting approach for protection against IRI in a transplant. […] Second, the targeting vehicle itself contributes to therapeutic activity by blocking the binding of complement activating pathogenic IgM, which in turn reduces the binding of Clq and MBL, which can impact inflammation, endothelial activation, cell trafficking, and Ag-presentation. Third, it is likely less immunosuppressive since not all sites of infection and C3 deposition will be targeted with complement inhibition.

transplanted heart = assay: Cardiac allograft transplant model (B4scFv targeting strategy); type: in vivo, mice
Protocol: as §1

[1] = system: post-ischemic human brain; assay: Binding to normal and ischemic brain samples from stroke patients
Protocol: as §1

[2] = target: T2, annexin IV in post-ischemic mouse tissue (transplanted heart, brain-dead donor cardiac grafts, liver) (mouse, UniProt P97429 1-319, limits assumed); assay: perfusion of radiolabeled (125I) B4scFv-Crry through cardiac grafts of brain-dead or living donors, counted after flush
T2 construct: The target was whole grafts or tissue
T2 sequence (looked up): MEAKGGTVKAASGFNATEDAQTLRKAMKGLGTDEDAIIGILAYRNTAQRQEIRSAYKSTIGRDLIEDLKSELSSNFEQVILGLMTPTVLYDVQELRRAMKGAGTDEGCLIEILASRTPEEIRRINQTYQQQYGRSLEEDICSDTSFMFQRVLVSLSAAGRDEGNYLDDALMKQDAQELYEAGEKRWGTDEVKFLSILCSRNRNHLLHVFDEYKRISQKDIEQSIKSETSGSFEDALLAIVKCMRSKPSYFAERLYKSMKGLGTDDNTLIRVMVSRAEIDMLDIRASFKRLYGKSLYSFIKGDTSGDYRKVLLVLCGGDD
Protocol: FIG. 5 depicts the Binding of ¹²⁵I-B4-Crry after perfusion of grafts of BD (3 hours) or living donors. […] After 5 minutes, flush with 0.5 ml PBS, weigh and count.
In this experiment, B4scFv-Crry was administered to the donor hearts as a constituent of the UW preservation solution. […] The donor heart was then isolated and perfused with 0.5 mL ice cold UW or I¹²⁵-B4scFv-Crry via the proximal aortic arch.

[3] = allograft transplant model, recipients with full natural antibody repertoire

`C=CC[C@@H]1/C=C(\C)C[C@H](C)C[C@H](OC)[C@H]2O[C@@](O)(C(=O)C(=O)N3CCCC[C@H]3C(=O)O[C@H](/C(C)=C/[C@@H]3CC[C@@H](O)[C@H](OC)C3)[C@H](C)[C@@H](O)CC1=O)[C@H](C)C[C@@H]2OC` [Tacrolimus, reference compound] was tested, and the graft survival (allogeneic grafts; tacrolimus alone, 1 mg/kg/day (subtherapeutic)) was “does not prolong survival”.

B1: B4scFv-Crry: anti-annexin-IV single chain antibody (B4scFv) linked to Crry; B4Crry amino acid sequence SEQ ID NO: 62 (protein)
chain: MSVPTQVLGLLLLWLTDARCVKLQESGPELVKPGASVKISCKASGYTFTDYYMNWVKQSHGKSLEWIGDINPNNGGTSYNQKFKGKATLTVDKSSSTAYMELRSLTSEDSAVYYCARYDYAWYFDVWGQGTTVTVSSGGGGSGGGGSGGGGDVLMTQTPLSLPVSLGDQASISCRSSQSIVHSNGNTYLEWYLQKPGQSPKLLIYKVSNRFSGVPDRFSGSGSGTDFTLKISRVEAEDLGVYYCFQGSHVPYTFGGGTKLEIKRGGGGSGGGGSCPAPSQLPSAKPINLTDESMFPIGTYLLYECLPGYIKRQFSITCKQDSTWTSAEDKCIRKQCKTPSDPENGLVHVHTGIQFGSRINYTCNQGYRLIGSSSAVCVITDQSVDWDTEAPICEWIPCEIPPGIPNGDFFSSTREDFHYGMVVTYRCNTDARGKALFNLVGEPSLYCTSNDGEIGVWSGPPPQCIELNKCTPPPYVENAVMLSENRSLFSLRDIVEFRCHPGFIMKGASSVHCQSLNKWEPELPSCFKGVICRLPQEMSGFQKGLGMKKEYYYGENVTLECEDGYTLEGSSQSQCQSDGSWNPLLAKCVSRSIIEGRHHHHHH
modifications: B4Crry amino acid sequence
B1 was tested, and the “Ischemia reperfusion injury (skin and muscle histopathological score)” value (VC isografts) was “protection from IRI”, the “staining of biopsies obtained post-Tx” value (annexin IV; human liver biopsies post-Tx) was “stained biopsies obtained post-Tx” and the “staining of samples from normal biopsies” value (annexin IV; normal human liver biopsies) was “not samples from normal biopsies”. For the same molecule, the “binding to post-ischemic human liver” value (annexin IV; post-ischemic human liver) was “directly bind”, the graft survival (allogeneic grafts; B4-Crry at 0 and 24 hours post-transplant combined with tacrolimus 1 mg/kg/day, vs. tacrolimus alone) was “significantly prolongs graft survival” and the “cardiac graft inflammation and injury” value (transplanted heart; allograft transplant model) was “significantly reduced”. The “complement activation in graft” value (transplanted heart; [3]) was “blocked”, the “graft IgM binding” value (transplanted heart; [3]) was “blocked” and the “targeting to the transplanted heart” value (transplanted heart; cardiac Tx model) was “specifically targeted to the transplanted heart”. For the same molecule, the immunity to infection (transplanted heart; compared with complement deficiency) was “did not affect immunity to infection” and the “binding to post-ischemic human brain” value [1] was “directly bind”.

B2: B4scFv-Crry (scFv)
chain: VKLQESGPELVKPGASVKISCKASGYTFTDYYMNWVKQSHGKSLEWIGDINPNNGGTSYNQKFKGKATLTVDKSSSTAYMELRSLTSEDSAVYYCARYDYAWYFDVWGQGTTVTVSSGGGGSGGGGSGGGGDVLMTQTPLSLPVSLGDQASISCRSSQSIVHSNGNTYLEWYLQKPGQSPKLLIYKVSNRFSGVPDRFSGSGSGTDFTLKISRVEAEDLGVYYCFQGSHVPYTFGGGTKLEIKRGGGGSGGGGSCPAPSQLPSAKPINLTDESMFPIGTYLLYECLPGYIKRQFSITCKQDSTWTSAEDKCIRKQCKTPSDPENGLVHVHTGIQFGSRINYTCNQGYRLIGSSSAVCVITDQSVDWDTEAPICEWIPCEIPPGIPNGDFFSSTREDFHYGMVVTYRCNTDARGKALFNLVGEPSLYCTSNDGEIGVWSGPPPQCIELNKCTPPPYVENAVMLSENRSLFSLRDIVEFRCHPGFIMKGASSVHCQSLNKWEPELPSCFKGVICRLPQEMSGFQKGLGMKKEYYYGENVTLECEDGYTLEGSSQSQCQSDGSWNPLLAKCVSRSIIEGRHHHHHH
modifications: 125I radiolabel in the graft perfusion experiment (position not given)
notes: also called B4-Crry; B4Crry
With B2 the “fold higher binding in BD vs. living donor grafts” value [2] was 7 fold.
